Source: US20120316071A1 (published 2012)

Legend:
[1] = target: T1, Recombinant Human DLL4 (R&D Systems Cat#1506-D4/CF) (human, UniProt Q9NR61 27-524); experiment: ELISA titration, 2-fold dilutions from 20 nM Fab
T1 construct: bought recombinant protein; also called rHuman DLL4; delta-like protein 4

Recombinant Human DLL4 = target: T2, Recombinant Human DLL4 (human, UniProt Q9NR61 27-524); experiment: ECL (MSD) multispot binding assay, DLL4 spotted on plate, Fab in solution
T2 construct: also called delta-like protein 4; rHuman DLL4

Binder	Kd [1]	ECL signal (Recombinant Human DLL4)
Fab VH1-46_IGHD6-6*01_IGHJ1*01 S102A/S103P/S104F/H111F I51E/N52L/S54T/G56H & L6_IGKJ1*01 (Fab, V domains shown, Fab; also called APFF ELTH) VH: QVQLVQSGAEVKKPGASVKVSCKASGYTFTSYYMHWVRQAPGQGLEWMGIELPTGHSTSYAQKFQGRVTMTRDTSTSTVYMELSSLRSEDTAVYYCAREEYAPFSAEYFQFWGQGTLVTVSS VL: not shown	1 to 10 nM	–
Fab VH1-46_IGHD6-6*01_IGHJ1*01 S102A/S103P/S104F/H111F I51N/N52L/S54T/G56H & L6_IGKJ1*01 (Fab, V domains shown, Fab; also called APFF NLTH) VH: QVQLVQSGAEVKKPGASVKVSCKASGYTFTSYYMHWVRQAPGQGLEWMGINLPTGHSTSYAQKFQGRVTMTRDTSTSTVYMELSSLRSEDTAVYYCAREEYAPFSAEYFQFWGQGTLVTVSS VL: not shown	1 to 10 nM	–
Fab VH1-46_IGHD6-6*01_IGHJ1*01 S102A/S103P/S104F/H111F I51T/N52L/P53A/S54T/G56H & L6_IGKJ1*01 (Fab, V domains shown, Fab; also called APFF TLATH) VH: QVQLVQSGAEVKKPGASVKVSCKASGYTFTSYYMHWVRQAPGQGLEWMGITLATGHSTSYAQKFQGRVTMTRDTSTSTVYMELSSLRSEDTAVYYCAREEYAPFSAEYFQFWGQGTLVTVSS VL: not shown	> 100 nM	–
Fab VH1-46_IGHD6-6*01_IGHJ1*01 S102A/S103P/S104F/H111F I51T/N52V & L6_IGKJ1*01 (Fab, V domains shown, Fab; also called APFF I51T/N52V) VH: QVQLVQSGAEVKKPGASVKVSCKASGYTFTSYYMHWVRQAPGQGLEWMGITVPSGGSTSYAQKFQGRVTMTRDTSTSTVYMELSSLRSEDTAVYYCAREEYAPFSAEYFQFWGQGTLVTVSS VL: not shown	10 to 100 nM	–
Fab VH1-46_IGHD6-6*01_IGHJ1*01 S102A/S103P/S104F/H111F I51V/N52L/S54T/G56H & L6_IGKJ1*01 (Fab, V domains shown, Fab; also called APFF VLTH; APPF VLTH) VH: QVQLVQSGAEVKKPGASVKVSCKASGYTFTSYYMHWVRQAPGQGLEWMGIVLPTGHSTSYAQKFQGRVTMTRDTSTSTVYMELSSLRSEDTAVYYCAREEYAPFSAEYFQFWGQGTLVTVSS VL: not shown	1 to 10 nM	–
Fab VH1-46_IGHD6-6*01_IGHJ1*01 S102A/S103P/S104F/H111F N52L/S54T/G56H & L6_IGKJ1*01 (Fab, V domains shown, Fab; also called H:APFF LTH & L:wt; APFF LTH) VH: QVQLVQSGAEVKKPGASVKVSCKASGYTFTSYYMHWVRQAPGQGLEWMGIILPTGHSTSYAQKFQGRVTMTRDTSTSTVYMELSSLRSEDTAVYYCAREEYAPFSAEYFQFWGQGTLVTVSS VL: not shown	1 to 10 nM	–
Fab VH1-46_IGHD6-6*01_IGHJ1*01 S102A/S103P/S104F/H111F (APFF) & L6_IGKJ1*01 W94R (Fab, V domains shown, Fab from E. coli; VH in Plasmid A (CH1, His6 and Flag tags), VL in Plasmid C (kappa CL); also called APFF & W94R) VH: QVQLVQSGAEVKKPGASVKVSCKASGYTFTSYYMHWVRQAPGQGLEWMGIINPSGGSTSYAQKFQGRVTMTRDTSTSTVYMELSSLRSEDTAVYYCAREEYAPFSAEYFQFWGQGTLVTVSS VL: EIVLTQSPATLSLSPGERATLSCRASQSVSSYLAWYQQKPGQAPRLLIYDASNRATGIPARFSGSGSGTDFTLTISSLEPEDFAVYYCQQRSNRPPWTFGQGTKVEIKR	–	75800
Fab VH1-46_IGHD6-6*01_IGHJ1*01 S102A/S103P/S104F/H111F (APFF) & L6_IGKJ1*01 W94S (Fab, V domains shown, Fab from E. coli; VH in Plasmid A (CH1, His6 and Flag tags), VL in Plasmid C (kappa CL); also called APFF & W94S) VH: QVQLVQSGAEVKKPGASVKVSCKASGYTFTSYYMHWVRQAPGQGLEWMGIINPSGGSTSYAQKFQGRVTMTRDTSTSTVYMELSSLRSEDTAVYYCAREEYAPFSAEYFQFWGQGTLVTVSS VL: EIVLTQSPATLSLSPGERATLSCRASQSVSSYLAWYQQKPGQAPRLLIYDASNRATGIPARFSGSGSGTDFTLTISSLEPEDFAVYYCQQRSNSPPWTFGQGTKVEIKR	–	109000
Fab VH1-46_IGHD6-6*01_IGHJ1*01 S102A/S103P/S104F/H111F (APFF) & L6_IGKJ1*01 W94T (Fab, V domains shown, Fab from E. coli; VH in Plasmid A (CH1, His6 and Flag tags), VL in Plasmid C (kappa CL); also called APFF & W94T) VH: QVQLVQSGAEVKKPGASVKVSCKASGYTFTSYYMHWVRQAPGQGLEWMGIINPSGGSTSYAQKFQGRVTMTRDTSTSTVYMELSSLRSEDTAVYYCAREEYAPFSAEYFQFWGQGTLVTVSS VL: EIVLTQSPATLSLSPGERATLSCRASQSVSSYLAWYQQKPGQAPRLLIYDASNRATGIPARFSGSGSGTDFTLTISSLEPEDFAVYYCQQRSNTPPWTFGQGTKVEIKR	–	23200
